Assay results as given in patent US20040116653A1.

Target: human CD4 on cells (MT-2, MT-4 cells; mouse SR.hCD4 cells transfected with human CD4) (human) (UniProt P01730)
Assay: cell-based or functional assay

synthetic soluble multiple-branched peptide (MBP) corresponding to amino acids 51-74 of CD38 (CD3851-74 MBP)
EC50, inhibition of HIV-1IIIB infection of MT-4 cells (p24 ELISA, day 3): 12 nM
EC90, inhibition of HIV-1IIIB infection of MT-4 cells (p24 ELISA, day 3): 75 nM
